{
  "source": "patent US20250388664A1",
  "about": "(BIOARCTIC, published 2025)",
  "key": {"[1]": {"molecular_target": "T1, truncated hTfR1 of SEQ ID NO:122 (human, UniProt P02786 122-760)", "T1 construct": "also called human TfR1; Human TfR1", "assay": "SPR, TfR1 amine-coupled, Fab injected, 1:1 fit", "description": "(§1) Binding of the purified Fabs to human and cynomolgus TfR1 was evaluated using either SPR (FIG. 44) or indirect ELISA (FIG. 45). For SPR, a Biacore 8K instrument (Cytiva) was used. […] The Fabs were injected over the chip using a 2-fold dilution series in four steps starting at 100 nM. The interaction was measured using the single cycle kinetics method with a contact time of 120 s at a flow rate of 30 μl/min followed by a dissociation time of 1000 s. Regeneration of the surface between cycles was done by injecting 3M MgCl₂. The binding data was fitted to a 1:1 interaction model. The Fabs were diluted in HBS-EP+ (Cytiva, #BR100669). Experiments were performed at 25° C."}, "[2]": {"molecular_target": "T2, truncated cTfR1 of SEQ ID NO:123 (cynomolgus monkey, UniProt Q5RDH6 122-760 (Pongo abelii entry))", "T2 construct": "also called cynomolgus TfR1", "T2 chain": "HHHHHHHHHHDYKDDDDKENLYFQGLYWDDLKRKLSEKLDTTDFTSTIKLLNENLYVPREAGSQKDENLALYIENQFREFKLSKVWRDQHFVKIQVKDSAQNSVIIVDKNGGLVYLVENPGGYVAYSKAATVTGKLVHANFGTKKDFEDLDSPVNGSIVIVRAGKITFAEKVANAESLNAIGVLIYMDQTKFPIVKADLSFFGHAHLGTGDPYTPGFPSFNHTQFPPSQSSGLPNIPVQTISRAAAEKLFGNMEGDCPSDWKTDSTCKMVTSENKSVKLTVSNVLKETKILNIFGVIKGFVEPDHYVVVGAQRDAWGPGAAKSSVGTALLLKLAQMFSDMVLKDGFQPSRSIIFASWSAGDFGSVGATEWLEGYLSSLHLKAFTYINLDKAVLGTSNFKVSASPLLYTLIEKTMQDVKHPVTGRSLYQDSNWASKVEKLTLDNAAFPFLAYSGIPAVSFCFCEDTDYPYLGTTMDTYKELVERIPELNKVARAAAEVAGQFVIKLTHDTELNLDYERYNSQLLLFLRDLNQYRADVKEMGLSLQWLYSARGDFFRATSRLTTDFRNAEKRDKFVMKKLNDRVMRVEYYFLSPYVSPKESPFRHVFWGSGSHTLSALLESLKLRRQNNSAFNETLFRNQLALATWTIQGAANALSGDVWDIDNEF", "assay": "SPR (Biacore 8K), single cycle kinetics: cTfR1 amine-coupled on a CM5 chip, Fab injected in a 2-fold series of four steps from 100 nM", "description": "as §1"}, "hTfR1 on cell surfaces": {"molecular_target": "T3, hTfR1 on cell surfaces (human, UniProt P02786 1-760)", "T3 construct": "Endogenous receptor on human cell lines; also called endogenous hTfR1 on hCMEC/D3, THP-1 and K562 cells; CD71", "assay": "flow cytometry on Fc-blocked K562 cells, 1 h at 4°C, detection with PE anti-human IgG Fc"}, "AβpE3-40 monomer [3]": {"molecular_target": "T4, AβpE3-40 monomer (UniProt P05067 674-711, pyroglutamate at position 3 (N-terminal residue))", "T4 construct": "range 3-40 (Aβ numbering); Synthetic peptide (Bachem/Anaspec), verified monomeric by SEC; also called monomeric AβpE3-40", "T4 sequence (P05067 674-711)": "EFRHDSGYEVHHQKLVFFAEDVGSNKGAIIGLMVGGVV", "assay": "inhibition ELISA, antigen titrated in solution, AβpE3-40 coat", "description": "(§2) The tested molecules were incubated at a fixed concentration (0.1 μg/ml) with titrating concentrations of the different AβpE3 antigens. After incubation for 45 min at 900 rpm to reach equilibrium, the samples were added to a blocked and washed ELISA plate with an AβpE3-40 coat (0.5 μM). The samples were incubated on the plate for 25 min without shaking followed by washing, incubation with detection antibody, another washing step and finally incubation with alkaline phosphatase substrate."}, "AβpE3-42 protofibrils": {"molecular_target": "T5, AβpE3-42 protofibrils (UniProt P05067 674-713, pyroglutamate at position 3 (N-terminal residue))", "T5 construct": "range 3-42 (Aβ numbering); Soluble aggregates made from AβpE3-42 peptide, purified in the void peak of SEC; also called AβpE3-42 PF", "T5 sequence (P05067 674-713)": "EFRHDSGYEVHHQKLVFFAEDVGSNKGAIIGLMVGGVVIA", "assay": "inhibition ELISA, antigen titrated in solution, AβpE3-40 coat", "description": "as §2"}, "AβpE3-40 monomer [4]": {"molecular_target": "T4, AβpE3-40 monomer", "assay": "SPR, antibody immobilised, monomer injected, 1:1 fit", "description": "Single cycle kinetics with the binding molecules immobilized on a CM5 chip was used to measure binding to the AβpE3-40 monomer. For the measurements, 5 μg/ml of analyte binding molecule was immobilized on the chip. […] Regeneration of the surface between cycles was done by injecting 30 μl 3 M MgCl₂ (Cytiva, cat. No. 29234600). The binding data was fitted to a 1:1 interaction model."}, "AβpE3-40 monomer [5]": {"molecular_target": "T4, AβpE3-40 monomer", "assay": "cell-based or functional assay"}, "[6]": {"molecular_target": "T6, hTfR1 (recombinant, construct not specified) (human, UniProt P02786 89-760, limits assumed)", "T6 construct": "also called biotinylated hTfR1", "assay": "indirect ELISA on an hTfR1 coat, detection with anti-mouse IgG F(ab')2, normalised A450 against log antibody concentration in pM"}, "[7]": {"molecular_target": "T2, truncated cTfR1 of SEQ ID NO:123", "assay": "SPR, TfR1 amine-coupled, Fab injected, 1:1 fit", "description": "(§3) The interaction was measured using the single cycle kinetics method with a contact time of 120 s at a flow rate of […] followed by a dissociation time of 600 s. Regeneration of the surface between cycles was done by injecting 3M MgCl₂. The binding data were fitted to a 1:1 interaction model. The Fabs were diluted in HBS-EP+ (Cytiva, #BR100669). Experiments were performed at 25° C."}, "[8]": {"molecular_target": "T1, truncated hTfR1 of SEQ ID NO:122", "assay": "SPR, TfR1 amine-coupled, Fab injected, 1:1 fit", "description": "as §3", "remark": "listed apart in the source"}, "[9]": {"molecular_target": "T6, hTfR1 (recombinant, construct not …)", "assay": "BLI: hTfR1 captured on biotinylated human holo-transferrin on streptavidin sensors, 15 nM Fab in solution, 120 s association, 300 s dissociation", "description": "A more detailed binding analysis by BLI was performed on purified, selected antibodies. […] For example, the BLI instrument Octet Red384 was used to measure binding between immobilized TfR1 and the tested Fab fragments in solution. […] Antibody binding to TfR1 was measured during an association phase of 120 s and a dissociation phase of 300 s."}},
  "note": "Like-named read-outs stand apart in the source and are kept apart here.",
  "data": [
    {"binder": "h26D3 variant LC5 Fab (Fab, V domains shown, Single-mutant His-tagged Fab; also called Y97A) VH: EVQLVQSGAEVKKPGSSVKVSCKASGYIFTDYNMDWVRQAPGQGLEWIGDINPDYDTTSYNEKFKGRATLTVDKSTSTAYMELSSLRSEDTAVYYCARGGYSGSSYYHPMDYWGQGTLVTVSS VL: DIQMTQSPSSVSASVGDRVTITCKSSQSLLYSTNQKNYLAWYQQKPGKAPKLLIYWASTRESGVPSRFSGSGSGTDFTLTISSLQPEDFATYYCQQAFIYPRTFGQGTKVEIK", "values": [
      {"measurement": "Kd", "setting": "[1]", "value": 240, "unit": "nM"},
      {"measurement": "binding result", "setting": "[2]", "value": "binds"}
    ]},
    {"binder": "BA003 (antibody, human IgG1, kappa, also called comparator antibody BA003; control antibody BA003) light: EIVLTQSPLSLSVTLGQSASISCRSSQSLLDSNGKTYLHWFILRPGQSPRRLIYLVSILDSGVPDRFSGSGSGTDFTLKISRVEAEDVGVYYCVQGTHFPFTFGSGTKLEIKRTVAAPSVFIFPPSDEQLKSGTASVVCLLNNFYPREAKVQWKVDNALQSGNSQESVTEQDSKDSTYSLSSTLTLSKADYEKHKVYACEVTHQGLSSPVTKSFNRGEC heavy: not shown", "values": [
      {"measurement": "binding result", "setting": "hTfR1 on cell surfaces", "value": "no binding (tested: 10000 nM)"},
      {"measurement": "IC50", "setting": "AβpE3-40 monomer [3]", "value": 1.1, "unit": "nM"},
      {"measurement": "IC50", "setting": "AβpE3-42 protofibrils", "value": 2.2, "unit": "nM"},
      {"measurement": "Kd", "setting": "AβpE3-40 monomer [4]", "value": 2.33, "unit": "nM"},
      {"measurement": "koff", "setting": "AβpE3-40 monomer [4]", "value": 0.000127, "unit": "s⁻¹"},
      {"measurement": "kon", "setting": "AβpE3-40 monomer [4]", "value": 54600, "unit": "M⁻¹ s⁻¹"},
      {"measurement": "Uptake of AβpE3-40 monomers in THP-1 cells, EC50", "setting": "AβpE3-40 monomer [5]", "value": 2.2, "unit": "nM"}
    ]},
    {"binder": "26D3-Fab (Fab, V domains shown, Fab of murine 26D3; also called murine 26D3 Fab) VH: EVQLQQFGVELVKPGASVKISCKASGYIFTDYNMDWVKQSHGKSLEWIGDINPDYDTTSYNEKFKGKATLTVDKSSSTAYMELRSLTSEDTAVYYCARGGYSGSSYYHPMDYWGQGTSVTVSS VL: DIVMSQSPSSLAVSVGEKITMSCKSSQSLLYSTNQKNYLAWYQQKPGQSPELLIYWASTRESGVPDRFTGSGSGTDFTLTISNVRAEDLAVYYCQQYFIYPRTFGGGTKLEIK", "values": [
      {"measurement": "EC50 (read off the curve)", "setting": "[6]", "value": "~0.06", "unit": "nM"},
      {"measurement": "Kd", "setting": "[7]", "value": 10, "unit": "nM"},
      {"measurement": "Kd", "setting": "[8]", "value": 3.6, "unit": "nM"}
    ]},
    {"binder": "37D10-Fab (Fab, V domains shown, Fab of murine 37D10) VH: QVQLQQSGAELVRPGTSVKISCKASGYAFTNYWLGWVKQRPGHGLEWIGDIFPGSDNTYYNEKFKGKATLTADKSSSTAYMQLSSLASEDSAVYFCARSGNFYAMDYWGQGTSVTVSS VL: ENVLTQSPAIMSASPGEKVTMTCSASSSVNYMNWYQQKSSTFPKLWIYDTSKLASGVPGRFSGSGSGKFYSLTISSMEAEDVATYYCFQGSGYPFTFGSGTKLEIK", "values": [
      {"measurement": "binding result", "setting": "[9]", "value": "binds"}
    ]}
  ]
}
